# Columns and labels:
# p65 = assay: Nuclear translocation assay (p65-HiBiT HeLa cells, LgBiT*-nuclear sensor); format: cell-based; details: for Time to reach maximum accumulation of p65 in the nucleus upon stimulation: real time measurement
# Text: A nuclear translocation assay was developed using measuring p65 movement from cytosol to the nucleus under TNFa stimulus. The nuclear translocation assay was set up similar to the membrane translocation assay. […] The assay allows measurement of protein translocation in real time.
# [1] = Effect of urea on activity; format: physicochemical
# Method: To test activity in the presence of urea, each enzyme was diluted to 1 uM in TBS+0.01% BSA+0.01% Tergitol and further diluted to 2 nM in TBS+0.01% BSA+0.01% Tergitol. […] A two-fold titration series was prepared for each, starting with 10M urea in 25 mM Tris pH 7.5+0.01% Tergitol. 10 uM furimazine was added to each sample of the titration series, and 5 ul of each enzyme or enzyme+pep263 (SEQ ID NO: 35) were combined with 45 ul of each substrate additive mixture. Plates were incubated for 3 minutes and then read on GMM+.
# To test the effect of prolonged exposure to urea, each enzyme was diluted to 1 uM, and a two-fold titration series was prepared starting with 10M urea in 25 mM Tris pH 7.5+0.01% Tergitol. 2 ul of each enzyme was added to 198 ul of the urea titration (10 nM final of each enzyme). The “no” additive control was TBS+0.01% BSA+0.01% Tergitol. Samples were incubated for 26 hours. After incubation, samples were diluted 1:10,000 into TBS+0.01% BSA+0.01% Tergitol (10 ul in 990 ul two times). […] 50 ul of each sample was combined with 50 ul of NanoGlo® buffer+50 uM Furimazine. Plates were incubated for 3 minutes and then read on GMM+.
# [2] = test system: SmTrip10 pep86 and SmTrip9 pep245; assay: LgTrip 2098 activation by separate β9 and β10-like peptides; format: biochemical; details: 10× concentrated lysate, peptides at 500 nM
# Method: The luminescence of LgTrip 2098 (SEQ ID NO: 31) was monitored over time in the presence of separate peptides corresponding to the β10 and β9 portions of the full-length luciferase (SmTrip10 pep86 (SEQ ID NO: 25) and SmTrip9 pep245) (SEQ ID NO: 23) (FIG. 2). Similar experimental protocols were used as in Example 1; however, a 10× concentrated lysate was used, Peptides SmTrip10 pep86 and SmTrip9 pep245 were used at 500 nM, and 0.001% Prionex added to reactions. […] Controls with no peptides added or only one of the peptides added produced near the background of the plate reader.
# SmTrip10 pep86 / pep263 = assay: Luminescence of LgBiT and LgTrip 2098 E. coli lysates with complementary peptide; format: biochemical; details: E. coli lysate, 25 nM peptide
# Method: (275 rpm) in a volume of 50 mL. From these cultures, 100× dilutions were made into the same media and the cultures grown at 37 C (275 rpm) for 3 h and then cooled to 25° C. before adding rhamnose (inducing agent for protein overexpression) to a final concentration of 0.2%. Cultures were then grown (induced) for 22 h at 25° C. (275 rpm) at which time cultures were harvested, and the resulting pellets stored at −20° C. until processing. To lyse cells, pellets were removed from −20° C., resuspended in 50 mL of PBS pH 7.2, and taken through 3 sequential freeze thaw cycles (−70° C. to 22° C.), centrifuged to produce soluble fractions, and then kept cold (on ice) until assaying. Lysates and peptide(s) (25 nm final concentration) were incubated together for 10 minutes at 25° C. prior to the addition of NanoGlo® reagent. After addition of reagent, plates were incubated for another 5 min at 35° C. and read over time to measure luminescence (RLU) using a Tecan Infinite F500 plate reader.
# Effect of pH on activity = format: physicochemical; details: pH titration series of universal buffer
# Method: A universal buffer was prepared containing 25 mM of each: NaCitrate, MES, PIPES, HEPES, TAPS, and Thiourea in 0.5% Tergitol. The buffer was divided into 8 aliquots of 20 ml, and NaOH or HCl was added to create a pH titration series.
# To test effect of pH on activity, each enzyme was diluted to 1 uM and then diluted to 0.4 nM in 3 ml of TBS+0.01% BSA+0.01% Tergitol. […] Assay reagent for each pH buffer tested (Table 5) (20 ul of furimazine in 980 of buffer). 10 ul of each enzyme/peptide dilution was combined with 50 ul of assay reagent. Plates were incubated for 3 minutes and read on GMM+.
# To test the effect of prolonged exposure varying pH, each enzyme was diluted to 1 uM in TBS+0.01% BSA+0.01% Tergitol, which was then diluted to 20 nM in each buffer. T=0 samples were mixed and then diluted 1:10 into 200 mM HEPES pH 7.5+0.01% BSA+0.01% Tergitol and stored at 4° C. T=8 samples were mixed and then diluted 1:10 into 200 mM HEPES pH 7.5+0.01% BSA+0.01% Tergitol store at 4° C. T=24 samples were mixed and then diluted 1:10 into 200 mM HEPES pH 7.5+0.01% BSA+0.01% Tergitol store at 4° C. […] 40 ul of each sample was diluted with 40 ul of NanoGlo® buffer+40 uM furimazine, incubated for 3 minutes, and then read on GMM+.
molecule,measurement,setting,value
TNFα,"EC50, titration of TNFα",p65; p65-HiBiT cell line transfected with LgBiT*-nuclear sensor,0.7 ng/mL
same,"Fold-response, titration of TNFα","p65; p65-HiBiT cells, LgBiT*-nuclear sensor",4 fold
same,Time to reach maximum accumulation of p65 in the nucleus upon stimulation,p65,30 min
same,Time to reach maximum accumulation of p65 in the nucleus upon stimulation,p65; listed as TNFa,approximately 30 min
"LgTrip 2098: β1-8-like polypeptide, SEQ ID NO: 17; SEQ ID NO: 31 with His tag (protein) MVFTLEDFVGDWEQTAAYNLDQVLEQGGVSSLLQNLAVSVTPIQRIVRSGENALKIDIHVIIPYEGLSADQMAQIEEVFKVVYPVDDHHFKVILPYGTLVIDGVTPNMLNYFGRPYEGIAVFDGKKITVTGTLWNGNKIIDERLITPD",Activity after prolonged (26 hour) exposure to urea,[1]; 26 hours incubation in urea titration,regain activity upon prolonged treatment with urea
same,Activity in the presence of urea (susceptibility to inactivation),"[1]; urea titration from 10M, with pep263 for LgBiT and LgTrip",least effected by urea
same,Activation by separate β9 and β10 peptides,[2],activated by the addition of SmTrip10 pep86 and SmTrip9 pep245
same,Gain in signal in the presence of complementary peptide,SmTrip10 pep86 / pep263,greater
LgTrip: β1-8-like polypeptide corresponding to SEQ ID NO: 17; variants LgTrip 2098 and LgTrip 3546 (protein) MVFTLEDFVGDWEQTAAYNLDQVLEQGGVSSLLQNLAVSVTPIQRIVRSGENALKIDIHVIIPYEGLSADQMAQIEEVFKVVYPVDDHHFKVILPYGTLVIDGVTPNMLNYFGRPYEGIAVFDGKKITVTGTLWNGNKIIDERLITPD,Effect of pH on activity,Effect of pH on activity,resistant to a wide pH range

# Source: patent publication US12655398B2, “Multipartite luciferase” (Promega Corporation, priority 2018, dated 2026)
